# Data published in paper PMC6642547.
# Target: human GITR-Fc (human) (UniProt Q9Y5U5)
# Assay: not stated; binding to and dissociation from the GITR-Fc receptors measured in real time, equilibrium binding constants (KD) calculated; instrument and who was immobilised not told in what was shown
# human GITR-Fc (human), sequence (Q9Y5U5 26-162): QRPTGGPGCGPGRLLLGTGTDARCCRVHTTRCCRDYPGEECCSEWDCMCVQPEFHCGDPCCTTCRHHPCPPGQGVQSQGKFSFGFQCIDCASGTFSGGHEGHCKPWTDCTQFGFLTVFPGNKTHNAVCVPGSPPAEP
substance,measurement,value
HERA-GITRL (hexavalent TNF receptor agonist; single-chain GITRL-receptor-binding-domain fused to a silenced human IgG1 Fc) (from UniProt Q9UNG2 56-177; Q9UNG2 56-177; Q9UNG2 56-177) (Fc fusion),Kd,0.366 nM
